Experimental data published in patent US20220387578A1.

Experiments:
[1] = molecular target: H14 HA A/mallard duck/Astrakhan/263/1982, recombinant (influenza A virus)
[2] = molecular target: H12 HA A/duck/Alberta/60/1976, recombinant (influenza A virus)
[3] = molecular target: H2 HA A/Singapore/1/1957, recombinant soluble trimer (influenza A virus)
[4] = molecular target: H5 HA A/Indonesia/05/2005 (H5N1), recombinant (influenza A virus)
[5] = molecular target: H15 HA A/shearwater/Western Australia/2576/1979, recombinant (influenza A virus)
[6] = molecular target: H7 HA A/Shanghai/2/2013 (H7N9), recombinant uncleaved trimer (influenza A virus)
[7] = molecular target: H9 HA A/Hong Kong/1073/99, recombinant (influenza A virus)
[8] = molecular target: H3 HA A/Hong Kong/1/1968 (H3N2), recombinant soluble trimer (influenza A virus) (UniProt Q91MA7)

Substance | EC50 relative to wild type rFluA-20 [1] [fold] | EC50 [2] [µg/mL] | EC50 [3] [µg/mL] | EC50 relative to wild type rFluA-20 [4] [fold] | EC50 [5] [µg/mL] | EC50 [6] [µg/mL] | EC50 [7] [µg/mL] | EC50 [8] [µg/mL] | EC50 relative to wild type rFluA-20 [6] [fold] | EC50 relative to wild type rFluA-20 [7] [fold] | EC50 relative to wild type rFluA-20 [2] [fold] | EC50 relative to wild type rFluA-20 [5] [fold]
rFluA-20 light chain mutant N53A (antibody) | > 100 | 0.03 | 0.16 | > 100 | 0.06 | 0.87 | 0.17 | – | – | – | – | –
rFluA-20 heavy chain mutant C101A (antibody) | > 100 | 0.09 | 0.44 | > 100 | 0.11 | – | – | 0.13 | > 100 | > 100 | – | –
rFluA-20 light chain mutant Q55A (antibody) | – | – | – | – | – | – | – | – | – | – | > 100 | > 100
